Data as given in patent publication US6858210B1, “Therapeutic and diagnostic domain 1 β2GPI polypeptides and methods of using same” (La Jolla Pharmaceutical Co., priority 1998, dated 2005).
Where two headings read alike, the source gives them in different places.

Tests used:
[1] = test system: affinity purified β2GPI-dependent antiphospholipid antibody; experiment: Direct binding ELISA, nickel chelate-coated wells charged with recombinant β2GPI proteins (no cardiolipin); design: species or system human; settings: O.D. at 550 nm
Description: (§1) Nickel Chelate-coated microwell plates (NCP 010 00 Xenopore Corp. 374 Midland Ave. Saddle Brook, N.J. USA) were coated with 50 μl of serial dilutions of the various recombinant β2GPI, in PBS, at room temperature for 2 hours. The plates were washed three times with PBS and blocked with 75 μl of a 1% gelatin (Sigma #G-2500) in PBS for one hour room temperature. […] The plates were washed three times with PBS, 50 μl of alkaline phosphatase conjugated anti-immunoglobulin (anti-human IgG, gamma chain specific, Zymed #62-8422) or anti-rabbit IgG (Zymed #62-6122) diluted appropriately in 1% gelatin was added and incubated at 37° C. for one hour. The plates were washed three times with PBS, 50 μl of alkaline phosphatase PPMP chromogenic substrate solution was added and incubated for 30 minutes at room temperature. The optical density, at 550 nm, was determined by reading the plates in a microplate autoreader (Bio-Teck Instruments, model EL311).
(§2) Seven to nine different recombinant β2GPI mutant proteins were examined to determine if they could support the direct binding of affinity purified β2GPI-dependent antiphospholipid antibody preparations in the absence of anionic phospholipid. All recombinant mutant β2GPI were assayed with affinity purified β2GPI-dependent antiphospholipid antibody preparations from 11 different patients. Each mutant recombinant β2GPI protein was tested, in a dose dependent fashion and GST-6his was included as a negative control. The recombinant mutant β2GPI proteins were bound to nickel coated microtiter plates via their 6-his tail. All recombinant mutant β2GPI proteins tested bound rabbit anti-β2GPI showing that they were assessable by antibody (FIG. 5).

[2] = test system: affinity purified β2GPI-dependent antiphospholipid antibody; experiment: Competitive inhibition ELISA: recombinant β2GPI proteins compete for antibody binding to coated full length recombinant β2GPI; design: species or system human; settings: for IC50: read-out: 50% (concentration to give 50% inhibition)
Description: Microtiter plates (MaxiSorp™, Nalge Nunc International, Denmark) were coated with 50 μl of full length recombinant β2GPI at 10 μg/ml in 0.1 M bicarbonate, pH 9.5, incubated overnight at 4° C., washed three times with 0.15 M PBS, pH 7.2, and blocked for one hour at room temperature with 75 μl of 2% Non-fat Dried Milk (Carnation, 2% NFDM). Test inhibitors were diluted in 2% NFDM and 25 μl of each dilution was added to coated wells. Affinity purified β2GPI-dependent antiphospholipid antibody was diluted in 2% NFDM and 25 μl, of a constant concentration, was added to the wells, including a group of wells that had no inhibitor, which acted as the positive controls. The contents of the wells were mixed and the plates were incubated at 37° C. for one hour. The plates were washed three times with PBS, 50 μl of alkaline phosphatase conjugated anti-human IgG, gamma chain specific, (Zymed #62-8422) diluted appropriately in 2% NFDM was added and incubated at 37° C. for one hour. The plates were washed three times with PBS, 50 μl of alkaline phosphatase PPMP chromogenic substrate solution was added and incubated for 30 minutes, at room temperature. The Optical Density, at 550 nm, was determined by reading the plates in a microplate autoreader (Bio-Teck Instruments, model EL3 11). The percent inhibition was determined by dividing the OD550 obtained in the presence of inhibitor by the mean OD550 obtained from the wells without inhibitor and then multiplying by 100 (more particularly, [mean A550 obtained from control wells without inhibitor less A550 of background] minus [A550 obtained in presence of inhibitor less A550 of background] divided by [mean A550 obtained from control wells without inhibitor less A550 of background] times 100).
Seven to nine different recombinant β2GPI mutant proteins were used to determine the antigenic specificity of affinity purified β2GPI-dependent antiphospholipid antibody preparations from 13 different patients. Each mutant recombinant β2GPI protein was tested, in a dose dependent fashion, for its ability to inhibit affinity purified β2GPI-dependent antiphospholipid antibody from binding to full length recombinant β2GPI. The following values were also observed for domain 1 only recombinant protein (1 - - - -; see Table 2 for designations): […]

rabbit anti-β2GPI = experiment: Direct binding ELISA, nickel chelate-coated wells, rabbit antibody; settings: O.D. at 550 nm
Description: as §1, §2

B1: --345: recombinant β2GPI deletion mutant with domains 3, 4, 5 (protein)
chain: GRIICPPPSIPTFATLRVYKPSAGNNSLYRDTAVFECLPQHAMFGNDTITCTTHGNWTKLPECREVKCPFPSRPDNGFVNYPAKPTLYYKDKATFGCHDGYSLDGPEEIECTKLGNWSAMPSCKASCKLPVKKATVVYQGERVKIQEKFKNGMLHGDKVSFFCKNKEKKCSYTEDAQCIDGTIEVPKCFKEHSSLAFWKTDASDVKPCGHHHHHH
Maximum O.D. ([1]; Ab 6203): 0.072 | Maximum O.D. ([1]; Ab 6501): 0.030 | Maximum O.D. ([1]; Ab 6626): 0.022 | Maximum O.D. ([1]; Ab 6632): 0.004 | Maximum O.D. ([1]; Ab 6641): 0.019 | Maximum O.D. ([1]; Ab 6644): 0.048 | Maximum O.D. ([1]; Ab 6652): 0.016 | Maximum O.D. ([1]; Ab 6701): 0.002 | Maximum O.D. ([1]; Ab 7008): 0.018 | Maximum O.D. ([1]; Ab 7015): 0.042 | Maximum O.D. ([1]; Ab 7101): 0.042 | Max (maximum inhibition observed at concentrations tested) ([2]; Ab 6203): 10% | IC50 ([2]; Ab 6203): > 50 µM | Max (maximum inhibition observed at concentrations tested) ([2]; Ab 6501): 15% | IC50 ([2]; Ab 6501): > 50 µM | Max (maximum inhibition observed at concentrations tested) ([2]; Ab 6509): 20% | IC50 ([2]; Ab 6509): > 15 µM | Max (maximum inhibition observed at concentrations tested) ([2]; Ab 6626): 20% | IC50 ([2]; Ab 6626): > 50 µM | Max (maximum inhibition observed at concentrations tested) ([2]; Ab 6632): 20% | IC50 ([2]; Ab 6632): > 50 µM | Max (maximum inhibition observed at concentrations tested) ([2]; Ab 6641): 10% | IC50 ([2]; Ab 6641): > 15 µM | Max (maximum inhibition observed at concentrations tested) ([2]; Ab 6644): 10% | IC50 ([2]; Ab 6644): > 50 µM | Max (maximum inhibition observed at concentrations tested) ([2]; Ab 6652): 30% | IC50 ([2]; Ab 6652): > 15 µM | Max (maximum inhibition observed at concentrations tested) ([2]; Ab 6701): 20% | IC50 ([2]; Ab 6701): > 15 µM | Max (maximum inhibition observed at concentrations tested) ([2]; Ab 7008): 20% | IC50 ([2]; Ab 7008): > 50 µM | Max (maximum inhibition observed at concentrations tested) ([2]; Ab 7015): 10% | IC50 ([2]; Ab 7015): > 50 µM | Max (maximum inhibition observed at concentrations tested) ([2]; Ab 7101): 5% | IC50 ([2]; Ab 7101): > 50 µM | Max (maximum inhibition observed at concentrations tested) ([2]; Ab 7104): 20% | IC50 ([2]; Ab 7104): > 50 µM | Maximum O.D. (rabbit anti-β2GPI): 1.993
